{"source": "patent US6353153B1", "about": "“Enhanced transport with a plastid membrane transport protein” (priority 1996, dated 2002)", "molecules": {"B1": {"name": "Bce44B: plastid transport protein, Brassica napus 44 kDa chloroplast envelope protein, member of Com44/Cim44, encoded by SEQ ID NO:1 (protein)", "chain": "MQTAMKTMMNQMNTQNSQFNNPGFPTGAGAGAGSPFPFPFPPQTSPTTSPFQPQSQSSGATVDLTATKVDRPPVSKPQPTPIPPTKSIEVYKPSVVVEENKAMKEEKNYAFEDVSPEETTKESPFSNYEEVSETSAPKETRLFDDVLQNGAAPANGATASDVFQSLGAGKGWAGGSVEVLEKMIEYPTFQKMLYPHLPEEMRNPESFKWVRKNPQYRQQLQDMLNNMSESGEWDKRMTETLKNFDPNSPEVKQGFDQLGLTPEEVISKIMENPDVSMAFQNPRVEAALMDCSENPMNIMKYQNDKEVMDVFNKISQLFPGLTG"}}, "key": {"[1]": {"test_system": "β-lactamase transport in E. coli MM52 (secAts)", "assay": "Ampicillin resistance, colony formation in temperature-sensitive secA mutant strain MM52", "type": "cell-based, Escherichia coli", "conditions": "30° C. permissive temperature", "source_text": "The effects of Bce44B on β-lactamase transport were further tested in a temperature-sensitive secA (secAts) mutant bacterial strain (MM52, a gift from Dr. Jon Beckwith, Harvard Medical School, Boston Mass.) to provide further evidence that the expressed Bce44B component affected protein translocation in bacteria and that the protein transport enhancement was not due solely to the upregulation of the existing bacterial transport machinery such as SecA. See Example 17. The defective protein translocation phenotype in MM52 appears primarily when cells are subjected to temperatures above 30° C. Protein translocation slows down and comes to a halt upon shifting to temperatures above 30° C. […] Effects on protein transport can then be monitored in this strain by tracking the β-lactamase profiles at permissive and non-permissive temperatures.\nThe same Bce44B gene construct and control Oee1-Dhfr plasmid were introduced into MM52 and its wild type counterpart strain MC4100 (containing the wild-type SecA) via electroporation. The role of Bce44B in protein translocation was assessed as before using three different criteria: 1) the level of antibiotic resistance conferred; 2) the profile of transported versus precursor β-lactamase at permissive and non-permissive temperatures; and 3) the level of sensitivity of protein transport to sodium azide. […]"}, "[2]": {"test_system": "β-lactamase translocation in E. coli JM109(DE3)", "assay": "Immunoblot of transported and processed β-lactamase", "type": "cell-based, Escherichia coli", "conditions": "per cell basis, four hours, ampicillin 50 μg to 3 mg/ml", "experimental": "Changes to β-lactamase transport were monitored by two different approaches: 1) the ability to form colonies on solid LB-agar plates containing increasing concentrations of ampicillin (50 μg/ml to 3.0 mg/ml); and 2) the level of transported and processed β-lactamase detected by immunoblotting total protein samples of cells grown in LB-broth containing increasing ampicillin concentrations.\nThe same cells were also used to determine the level of transported β-lactamase grown in media containing increasing concentrations of ampicillin. Cultures were diluted 5× into LB broth with increasing amounts of ampicillin (50 μg/ml to 3.0 mg/ml) and allowed to grow up to 4 hours. The level of transported β-lactamase was monitored by immunoblotting analysis of samples taken at time intervals of 0 hr, 0.5 hr, 1.0 hr, 1.5 hr, 2.0 hr, 3 hr and 4 hr. Immunoblot analysis was performed on total cellular protein samples with anti-p-lactamase antibodies as outlined above."}}}
{"molecule": "B1", "values": [{"measurement": "ampicillin concentration up to which expressing cells form colonies", "setting": "[1]", "result": "up to 3 mg/ml"}, {"measurement": "level of processed β-lactamase compared with Oee1-Dhfr-expressing cells", "setting": "[2]", "result": "higher"}]}
